Measured values taken from patent publication US20250043019A1 (Janssen / Centocor, published 2025).

Tests used:
[1] = biological target: T1, human CD79b on the cell surface (human, UniProt P40259 29-229); assay: cell-based or functional assay
T1 sequence: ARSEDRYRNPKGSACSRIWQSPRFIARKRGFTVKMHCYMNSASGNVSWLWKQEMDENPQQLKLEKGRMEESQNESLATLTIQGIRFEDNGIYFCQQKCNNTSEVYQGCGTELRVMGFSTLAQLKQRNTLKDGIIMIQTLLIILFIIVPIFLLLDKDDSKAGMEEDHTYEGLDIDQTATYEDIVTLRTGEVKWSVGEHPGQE

[2] = biological target: T1, human CD79b on the cell surface; assay: flow cytometry, HBL-1 cells, 1 h 37 C
Experimental: (§1) All cells were washed with BD stain buffer (BD Biosciences; Cat #554657), centrifuged at 1200 RPM for 3 minutes, with supernatant discarded. Cells were then stained for 20 minutes at 4° C. with BD stain buffer containing AlexaFluor 647 labeled anti-human IgG secondary antibody (Jackson Immuno; Cat #109-606-098) at a 1:200 dilution along with Aqua Fixable Live/Dead stain (Invitrogen; Cat #L34957) at a 1:400 dilution. All cells were washed with BD stain buffer (BD Biosciences; Cat #554657), centrifuged at 1200 RPM for 3 mins, with supernatant discarded. Cells were analyzed using Intellicyt (Sartorius) flow cytometer and mean fluorescent intensity (MFI) was generated using Forcyt software (Sartorius). MFI was graphed and EC50 values generated using GraphPad PRISM v.8. Dose response curves were generated by transforming the x axis values using the formula […]. Data was then graphed using non-linear regression curve fit analysis “log(agonist) vs. response-variable slope (four parameter)”.

[3] = biological target: T2, cynomolgus monkey CD79b antigen (cynomolgus monkey); assay: SPR Biacore 8k, cyno CD79b injected up to 3000 nM
T2 construct: also called cyno CD79b; CD9W1.001
Experimental: (§2) General Protocol for SPR Affinity Assessment: Affinity assessment of the bispecific trispecific constructs against human CD79b were measure using recombinantly expressed extracellular domain of CD79b short and long isoforms (CD9W7.001 and CD9W8.001, respectively) by Surface Plasmon Resonance (SPR) using a Biacore 8k SPR system (Biacore) at 25° C. in HBSP+ buffer. Cross-reactivity of the same antibody panel was also assessed against cyno and mouse antigens (CD9W1.001 and CD9W105.001, respectively). Briefly, a C1 sensor chip was immobilized with anti-human Fc (target immobilization levels of >400 RU) using vendor recommended amino coupling protocol. […] The association and dissociation phases were measured for 2 or 3 minutes and 30 minutes, respectively.
(§3) The raw binding sensorgrams were processed using Biacore Insight software (Biacore) by double-referencing and the processed sensorgrams were analyzed for cross-reactivity and fitted to a 1:1 Langmuir model to obtain on-rates, off-rates and affinities.

[4] = biological target: T1, human CD79b on the cell surface; assay: cell-based or functional assay; remark: listed apart in the source
[5] = biological target: T1, human CD79b on the cell surface; assay: flow cytometry, HBL-1 cells, 1 h 37 C; control row of Table 10, same value as Table 8
Experimental: as §1

[6] = biological target: T1, human CD79b on the cell surface; assay: cell-based or functional assay; remark: listed apart in the source
[7] = biological target: T1, human CD79b on the cell surface; assay: cell-based or functional assay; remark: listed apart in the source
[8] = biological target: T1, human CD79b on the cell surface; assay: cell-based or functional assay; remark: listed apart in the source
[9] = biological target: T1, human CD79b on the cell surface; assay: flow cytometry, Carnaval cells, 1 h 37 C; control row of Table 10, same value as Table 8
Experimental: as §1

[10] = biological target: T3, recombinant extracellular domain of human CD79b, long isoform (human, UniProt P40259 29-159); assay: SPR Biacore 8k, antibody captured by anti-Fc, 25 C
T3 construct: also called hu CD79b long
T3 sequence: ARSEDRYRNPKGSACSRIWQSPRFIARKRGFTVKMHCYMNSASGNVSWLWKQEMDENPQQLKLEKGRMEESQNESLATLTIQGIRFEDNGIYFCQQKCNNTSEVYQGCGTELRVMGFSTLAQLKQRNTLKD
Experimental: as §2, §3

[11] = biological target: T4, recombinant extracellular domain of human CD79b, short isoform (human, UniProt P40259 29-159); assay: SPR Biacore 8k, antibody captured by anti-Fc, 25 C
T4 chain: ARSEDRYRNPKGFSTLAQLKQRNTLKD
Experimental: as §2, §3

[12] = biological target: T1, human CD79b on the cell surface; assay: flow cytometry, Carnaval cells, 1 h 37 C
Experimental: as §1

[13] = biological target: T1, human CD79b on the cell surface; assay: cell-based or functional assay; remark: listed apart in the source
[14] = biological target: T5, human CD20 on the cell surface (human, UniProt P11836 1-297); assay: cell-based or functional assay
T5 sequence (looked up): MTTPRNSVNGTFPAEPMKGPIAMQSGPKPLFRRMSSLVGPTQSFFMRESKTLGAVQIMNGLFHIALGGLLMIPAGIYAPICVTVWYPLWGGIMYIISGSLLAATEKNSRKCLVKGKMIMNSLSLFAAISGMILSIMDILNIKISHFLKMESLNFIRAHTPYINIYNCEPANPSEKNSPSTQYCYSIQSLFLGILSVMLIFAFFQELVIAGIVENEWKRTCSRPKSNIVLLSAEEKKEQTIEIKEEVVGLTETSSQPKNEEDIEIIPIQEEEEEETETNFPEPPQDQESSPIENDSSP

[15] = biological target: T1, human CD79b on the cell surface; assay: cell-based or functional assay; remark: listed apart in the source
[16] = biological target: T1, human CD79b on the cell surface; assay: cell-based or functional assay; remark: listed apart in the source

B1: 79C3B646 CD79bxCD3 bispecific antibody (bispecific antibody, human IgG1, lambda, L234A L235A)
heavy: QVQLQQSGPGLVKPSQTLSLTCAISGDSVSSNSATWNWIRQSPSRGLEWLGRTYYRSKWYNDYTVSVKSRITINPDTSKNQFSLQLNSVTPEDTAVYYCTRVDIAFDYWGQGTLVTVSSASTKGPSVFPLAPSSKSTSGGTAALGCLVKDYFPEPVTVSWNSGALTSGVHTFPAVLQSSGLYSLSSVVTVPSSSLGTQTYICNVNHKPSNTKVDKKVEPKSCDKTHTCPPCPAPEAAGGPSVFLFPPKPKDTLMISRTPEVTCVVVSVSHEDPEVKFNWYVDGVEVHNAKTKPREEQYNSTYRVVSVLTVLHQDWLNGKEYKCKVSNKALPAPIEKTISKAKGQPREPQVYTLPPSREEMTKNQVSLSCAVKGFYPSDIAVEWESNGQPENNYKTTPPVLDSDGSFFLVSKLTVDKSRWQQGNVFSCSVMHEALHNRFTQKSLSLSPGK
light: QTVVTQPPSVSEAPRQRVTISCSGSSSNIGNHGVNWYQQLPGKAPKLLIYNDDLLPSGVSDRFSGSTSGTSGSLAISGLQSEDEADYYCAAWDDSLNGVVFGGGTKLTVLGQPKAAPSVTLFPPSSEELQANKATLVCLISDFYPGAVTVAWKADSSPVKAGVETTTPSKQSNNKYAASSYLSLTPEQWKSHRSYSCQVTHEGSTVEKTVAPTECS
chain: EIVLTQSPATLSASPGERVTLSCSASSSVSYMNWYQQKPGQAPRRWIYDSSKLASGVPARFSGSGSGRDYTLTISSLEPEDFAVYYCQQWSRNPPTFGGGTKVEIKGGSEGKSSGSGSESKSTGGSQVQLVQSGAEVKKPGSSVKVSCKASGYTFTRSTMHWVKQAPGQGLEWIGYINPSSAYTNYNQKFQGRVTLTADKSTSTAYMELSSLRSEDTAVYYCASPQVHYDYAGFPYWGQGTLVTVSSEPKSSDKTHTCPPCPAPEAAGGPSVFLFPPKPKDTLMISRTPEVTCVVVSVSHEDPEVKFNWYVDGVEVHNAKTKPREEQYNSTYRVVSVLTVLHQDWLNGKEYKCKVSNKALPAPIEKTISKAKGQPREPQVYTLPPSREEMTKNQVSLWCLVKGFYPSDIAVEWESNGQPENNYKTTPPVLDSDGSFFLYSKLTVDKSRWQQGNVFSCSVMHEALHNHYTQKSLSLSPGK
notes: IgG1 bispecific; CD79b Fab arm plus CD3 scFv-Fc arm; also called 79C3B646 bsAb; CD9B330-N31S x CD3B2030-N106A
Q: B1 was tested. Which “IC50, Daudi killing (Incucyte)” value [1] did it give?
A: The value was 0.597 nM.

Q: And the EC50 [2]?
A: Its EC50 is 97 nM.

Q: What about the Kd [3] of the same binder?
A: Its Kd is > 3000 nM.

Q: What about the “Cmax (maximum cytotoxicity), donor 1” value [4] of the same binder?
A: The value was 9%.

Q: What about the “Cmax (maximum cytotoxicity), donor 2” value [4] of the same binder?
A: The value was 14%.

Q: What about the “Cmax (maximum cytotoxicity), donor 3” value [4] of the same binder?
A: Its value is 35%.

Q: What about the “EC50, autologous B-cell depletion, donor 1” value [4] of the same binder?
A: Its value is 40 nM.

Q: What about the “EC50, autologous B-cell depletion, donor 2” value [4] of the same binder?
A: The value was 6 nM.

Q: What about the “EC50, autologous B-cell depletion, donor 3” value [4] of the same binder?
A: The value was 8 nM.

Q: What about the EC50 [5] of the same binder?
A: Its EC50 is 97 nM.

Q: What about the “IC50, T-cell killing of OCI-Ly10 (Incucyte)” value [6] of the same binder?
A: The value was 18.3 nM.

Q: What about the “IC50, T-cell killing of HBL-1 (Incucyte)” value [7] of the same binder?
A: The value was 257 pM.

Q: And the “IC50, CARNAVAL killing, 72 h (FACS)” value [8]?
A: The value was 0.29 nM.

Q: What about the “IC50, HBL-1 killing, 72 h (FACS)” value [8] of the same binder?
A: Its value is 0.73 nM.

Q: And the “IC50, OCI-LY10 killing, 72 h (FACS)” value [8]?
A: The value was > 100 nM.

Q: And the EC50 [9]?
A: The EC50 was 44 nM.

Q: And the Kd [10]?
A: The Kd was 0.022 nM.

Q: What about the Kd [11] of the same binder?
A: The Kd was 0.58 nM.

Q: What about the EC50 [12] of the same binder?
A: The EC50 was 44 nM.

Q: What about the “IC50, CARNAVAL killing (Incucyte)” value [13] of the same binder?
A: Its value is 1.39 nM.

B2: C923B169 CD79bxCD20xCD3 trispecific antibody (CD9B374 Fab x C20B648 LH scFv x CD3B2030 N106A LH scFv) (other)
heavy: QVQLQESGPGLVKPSETLSLTCSVSGASISSFYWSWIRQPADEGLEWIGRISPSGKTNYIPSLKSRIIMSLDASKNQFSLRLNSVTAADTAMYYCARGEYSGTYSYSFDVWGQGTMVTVSSASTKGPSVFPLAPSSKSTSGGTAALGCLVKDYFPEPVTVSWNSGALTSGVHTFPAVLQSSGLYSLSSVVTVPSSSLGTQTYICNVNHKPSNTKVDKKVEPKSCDKTHTCPPCPAPEAAGGPSVFLFPPKPKDTLMISRTPEVTCVVVSVSHEDPEVKFNWYVDGVEVHNAKTKPREEQYNSTYRVVSVLTVLHQDWLNGKEYKCKVSNKALPAPIEKTISKAKGQPREPQVYTLPPSREEMTKNQVSLSCAVKGFYPSDIAVEWESNGQPENNYKTTPPVLDSDGSFFLVSKLTVDKSRWQQGNVFSCSVMHEALHNRFTQKSLSLSPGK
light: DIVMTQSPLSLSVTPGEPASISCRSSESLLDSEDGNTYLDWFLQKPGQSPQLLIYTLSYRASGVPDRFSGSGSDTDFTLHISSLEAEDVGLYYCMQRMEFPLTFGQGTKVEIKRTVAAPSVFIFPPSDEQLKSGTASVVCLLNNFYPREAKVQWKVDNALQSGNSQESVTEQDSKDSTYSLSSTLTLSKADYEKHKVYACEVTHQGLSSPVTKSFNRGEC
chain: EIVLTQSPATLSASPGERVTLSCSASSSVSYMNWYQQKPGQAPRRWIYDSSKLASGVPARFSGSGSGRDYTLTISSLEPEDFAVYYCQQWSRNPPTFGGGTKVEIKGGSEGKSSGSGSESKSTGGSQVQLVQSGAEVKKPGSSVKVSCKASGYTFTRSTMHWVKQAPGQGLEWIGYINPSSAYTNYNQKFQGRVTLTADKSTSTAYMELSSLRSEDTAVYYCASPQVHYDYAGFPYWGQGTLVTVSSEPKSSDKTHTCPPCPAPEAAGGPSVFLFPPKPKDTLMISRTPEVTCVVVSVSHEDPEVKFNWYVDGVEVHNAKTKPREEQYNSTYRVVSVLTVLHQDWLNGKEYKCKVSNKALPAPIEKTISKAKGQPREPQVYTLPPSREEMTKNQVSLWCLVKGFYPSDIAVEWESNGQPENNYKTTPPVLDSDGSFFLYSKLTVDKSRWQQGNVFSCSVMHEALHNHYTQKSLSLSPGKGGGGSGGGGSGGGGSGGGGSEIVLTQSPATLSLSPGERATLSCRASLSVSSMHWYQQKPGQAPRLLIYATSNLASGIPARFSGSGSGTDFTLTISSLEPEDFAVYYCQQWIFNPPTFGGGTKVEIKGGSEGKSSGSGSESKSTGGSQVQLVQSGAEVKKPGSSVKVSCKASGYTFSSYNMHWVRQAPGQGLEWMGAIYPGAGDTSYAQKFQGRVTITADESTSTAYMELSSLRSEDTAVYYCARSNYYGSSGWYFDVWGKGTTVTVSS
Q: With B2 as the binder, how does the “EC50, long-term Incucyte cytotoxicity, K562 CD20” value [14] read?
A: The value was 4.08 nM.

Q: What about the “EC50, long-term Incucyte cytotoxicity, K562 CD79b” value [15] of the same binder?
A: Its value is 1.04 nM.

Q: What about the “EC50, decrease of IL-10 secretion by CD79b mutant OCI-Ly10 cells (MSD assay)” value [16] of the same binder?
A: The value was 15.4 nM.
